Test results reported in patent US20250179196A1 (Janssen / Centocor, published 2025).
Numbering of substitutions follows the chain as printed. Blank lines part the entries; values can stand above or below the binder they belong to.

What was measured:
[1] = molecular target: T1, human IL-23R expressed on the cell surface of stably transfected iLite and HEK cell lines (human, UniProt Q5VWK5 24-629); experiment: flow cytometry on human IL-23R HEK cells, Expt D (8-point, 96well)
T1 construct: whole, on cells; Same receptor on two transfected cell lines; the cell line is named under assay; also called human IL-23R iLite cells; human IL-23R HEK cells
T1 sequence (looked up): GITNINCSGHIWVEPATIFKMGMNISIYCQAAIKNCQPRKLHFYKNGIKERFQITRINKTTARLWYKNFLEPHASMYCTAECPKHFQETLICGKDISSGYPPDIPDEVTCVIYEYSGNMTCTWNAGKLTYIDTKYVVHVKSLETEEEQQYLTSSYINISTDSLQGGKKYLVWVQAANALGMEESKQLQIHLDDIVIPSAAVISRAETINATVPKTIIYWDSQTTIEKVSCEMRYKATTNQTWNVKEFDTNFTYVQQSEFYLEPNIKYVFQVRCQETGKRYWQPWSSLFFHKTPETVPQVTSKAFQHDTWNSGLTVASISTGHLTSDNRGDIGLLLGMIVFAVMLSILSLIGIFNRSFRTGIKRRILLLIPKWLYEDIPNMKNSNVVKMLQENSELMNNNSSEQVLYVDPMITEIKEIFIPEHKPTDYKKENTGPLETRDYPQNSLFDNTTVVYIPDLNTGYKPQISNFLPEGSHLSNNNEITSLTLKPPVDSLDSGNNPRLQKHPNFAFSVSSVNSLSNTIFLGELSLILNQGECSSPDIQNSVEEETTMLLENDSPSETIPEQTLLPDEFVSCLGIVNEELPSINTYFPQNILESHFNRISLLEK
Procedure, shortened: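 Serially diluted IL-23R mAbs bound to mixed HEK-IL-23R and parental HEK cells for 30 min at 37 °C, in duplicate. After washes, 647 detection antibody geometric MFI measured on single viable (Sytox Green-negative) cells and fitted to a variable-slope dose-response against log mAb concentration.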

[2] = molecular target: T1, human IL-23R expressed on the cell …; experiment: flow cytometry on human IL-23R HEK cells, Expt E (11-point, 384well)
Procedure, shortened: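 Antibody bound to HEK-IL-23R cells 30 min at 37 °C over 11 concentrations; after washes, Sytox Green added and cells run on iQue. Geometric MFI of 647 detection antibody on single viable cells fitted by variable-slope dose–response.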

EC50 [1]: 0.3 nM
EC50 [2]: 11.6 nM
MFI (6.4 nM) [2]: 198000 MFI
B1: I23RB166 (antibody, mouse IgG2a, kappa, V domains shown)
VH: DVQLQESGPGLVKPSQTVSLTCTVTGYSITNGNHWWNWIRQVSGSKLEWIGYIRSSGSTDSNPSLKSRISITRDTSKNQLFLQLNSVTAEDIATYYCARERLRLRWSYFDYWGQGTTLTVSS
VL: DIVMTQSHKFMSTSVGARVSITCKASQDVSTAVAWYQQKPGQSPKLLIYSASYRYTGVPDRFTGSGSGTDFTFTISSVQAEDLAVYYCQQHYSTPRTFGGGTKLEIKR
notes: immunization; mouse IgG2a/kappa

EC50 [1]: 2 nM
EC50 [2]: > 50 nM
MFI (6.4 nM) [2]: 90100 MFI
B6: I23RB188 (antibody, mouse IgG2a, kappa, V domains shown)
VH: QIQLVQSGPELKKPGETVKISCKASGYTFTNYGMNWVKQAPGKGLKWMGWINTYTGAPTYADDFKGRFAFSLETSASTAYLQINNFKNEDTATYFCARGNGYPYYYGINYWGQGTSVTVSS
VL: DVQMIQSPSSLSASLGERVSLTCRASQEISGNLSWLQQKPDGTIKRLIYAASTLDSGVPKRFSGSRSGSDYSLTISSLESEDFADYYCLQYASYPWTFGAGTRLEIKR
notes: as for B1

EC50 [1]: 0.4 nM
EC50 [2]: 7.4 nM
MFI (6.4 nM) [2]: 100000 MFI
B8: I23RB173 (antibody, mouse IgG2a, kappa, V domains shown)
VH: DVQLQESGPGLVKPSQSLSLTCSVTGYSITSGYYWNWIRQFPGNKLEWMGYISYDGGNNYNPSLKNRISITRDTSKNQFFLKLNSVTTEDTATYYCARDAGLLPYYAMDYWGQGTTLTVSS
VL: DIKMTQSPAIMSASPGEKVTITCSASSSVSYMHWFQQKPGTSPKLWIYSTSNLASGVPARFSGSGSGTSYSLTISRMEAEDAATYYCQQRSSYPLTFGDGTKLEMKR
notes: as for B1

EC50 [1]: 3.4 nM
EC50 [2]: 22.1 nM
MFI (6.4 nM) [2]: 73000 MFI
B11: I23RB168 (antibody, mouse IgG2a, kappa, V domains shown)
VH: QIQLVQSGPELVKPGASVKMSCKTSGYTFTDYYINWVKQRPGQGLEWIGWIYPAINNTNYNEKFKGKATLTVDTSSRTAYMQLNSLTSEDSAVYFCAISRKPYFDYWGQGTTLTVSS
VL: DIQMTQSSSSFSVSLGDRVTITCKASEDLYNRLAWYQQKPGNAPRLLISGATSLGTGVLSRFSGSGSGKDYTLSITSLQTEDVATYYCQQYWSIPWTFGAGTKLELKR
notes: as for B1

EC50 [1]: 36.4 nM
EC50 [2]: > 50 nM
MFI (6.4 nM) [2]: 26200 MFI
B14: I23RB182 (antibody, mouse IgG2a, kappa, V domains shown)
VH: EVQLQQSGPGLVKPSQSLSLTCSVTGYSITSGYFWNWLRQFPGSKLEWMGFIDNDGSNDYNPSLKNRISITRDTSKNQFFLRLNSVTTEDTATYYCARGRLGFFDSWGPGTTLTVSS
VL: DIVMTQSPAIMSASLGEKVTMSCRASSSVNYMYWYQQKSDASPKLWIYYTSNLAPGVPARFSGSGSGNSYSLTISSMEGEDAATYYCQQFTNSPWTFGAGTKLELKR
notes: as for B1

EC50 [1]: 0.7 nM
EC50 [2]: 15.4 nM
MFI (6.4 nM) [2]: 132000 MFI
B15: I23RB169 (antibody, mouse IgG2a, kappa, V domains shown)
VH: QIQLVQSGPELKKPGETVKISCKASGYTFTTVGMQWVQKMPGKGFKWIGWINTHSGEPKYTDDFKGRFAFSLETSASTAYLQISNLKSEDTATYFCARSSALTGAFAYWGQGTLVTVSS
VL: DIKMTQSPASLAVSLGQRATISCRASKSVSTSDYSYMHWYQQKPGQPPKLLIYLASNLESGVPARFSGSGSGTDFTLNIHPVEEEDAATYYCQHSRELPRTFGAGTKLELKR
notes: as for B1

Second part, the binder before the results:

B2: I23RB156 (antibody, mouse IgG2a, kappa, V domains shown)
VH: QVQLKESGPGLVAPSQSLSITCTVSGFSLTSYAINWVRQPPGKGLEWLGVIWTGGGTNYNSVFKSRLSISKDNSKSQIFLKMISLQTDDTARYYCARNRDYSNYRWYFDVWGAGTTLTVSS
VL: B1 VL with A17D, Q42R, S52F, S76G, T94I, R96L, G100A, I106L
notes: as for B1
EC50 [1]: 0.4 nM
EC50 [2]: 8.9 nM
MFI (6.4 nM) [2]: 174000 MFI

B3: I23RB150 (antibody, mouse IgG2a, kappa, V domains shown)
VH: QIQLVQSGPELKKPGETVKISCKASAYTFTNYGMNWVKQAPGKGLKWMGWIKTNTGEPTYAEEFKGRFAFSLETSASTAYLQINNLKNEDTATYFCARSRQLGLRYYFDYWGQGTTLTVSS
VL: B1 VL with A17G, K45R, Y86F, R96Y, G100S, K103R
notes: as for B1
EC50 [1]: 0.8 nM
EC50 [2]: 16.2 nM
MFI (6.4 nM) [2]: 103000 MFI

B4: I23RB148 (antibody, mouse IgG2a, kappa, V domains shown)
VH: DVQLQESGPDLVKPSQSLSLTCTVTGYSITSGYNWHWIRQFPGNKLEWMGYIHSSGTTNYSPSLRSRLSITRDTSKNQFFLQLNSVTTEDTATYYCTRQLGLKAMEYWGQGTTLTVSS
VL: B1 VL with A17D, I21L, D28E, S30R, S43P, S76I, S93T, R96Y, T97S, G100S
notes: as for B1
EC50 [1]: 0.3 nM
EC50 [2]: 6 nM
MFI (6.4 nM) [2]: 203000 MFI

B5: I23RB160 (antibody, mouse IgG2a, kappa, V domains shown)
VH: QVQLKESGPDLVKPSQSLSLTCTVTGYSITSGYNWHWIRQFPGNKLEWMGYIHYSSGTIYNPSLKSRISITRDTSKNQFFLQLNSVTTEDTGTYYCARQLGLKAMDYWGQGTSVTVSS
VL: B1 VL with A17D, S30R, Y49H, A80V, S93T, R96Y, G100S
notes: as for B1
EC50 [1]: 0.4 nM
EC50 [2]: 5.6 nM
MFI (6.4 nM) [2]: 185000 MFI

B7: I23RB31 (antibody, mouse IgG2a, kappa, V domains shown)
VH: EFQLQQSGAEMVRPGASVKLSCKASGYTFTGYWMNWVKQRPGQGLEWIGKIDPSDTETHYNQNFKDKATLTVDKSSSTAYMQLNSLTSEDSAVYYCARWGLGRNFAMDYWGQGTTLTVSS
VL: DIVLTQSPATLSVTPGDRVSLSCRASQSISDHLHWYQQKSHESPRLLIKFASQSISGIPSRFSGSGSGSDFTLSIDSVEPEDVGVYYCQNGHSFPLTFGSGTKLEIKR
notes: as for B1
EC50 [1]: 1.7 nM
EC50 [2]: > 50 nM
MFI (6.4 nM) [2]: 78600 MFI

B9: I23RB162 (antibody, mouse IgG2a, kappa, V domains shown)
VH: EFQLQQSGPELVKPGASVKMSCKASGYTFTNYVMHWVKQKPGQGLEWIGYINPYNDGTKYNEKFKGKATLTSDKSSSTAYMELSSLTSEDSAVYYCARSRTGTRWYFDVWGAGTTVTVSS
VL: DIVMTQSQKFMSTSVGDRVSVTCKASQNVGTNVAWYQQKPGQSPKALIYSASYRYSGVPDRFTGSGSGTDFTLTISNVQSEDLAEYFCQQYNSYPFTFGSGTKLEIKR
notes: as for B1
EC50 [1]: 0.1 nM
EC50 [2]: 2.8 nM
MFI (6.4 nM) [2]: 269000 MFI

B10: I23RB155 (antibody, mouse IgG2a, kappa, V domains shown)
VH: QVQLKESGPGLVKPSQSLSLTCSVTGYSITSGHSWNWIRQFPGNKLEWMGYISYDGTNDYNPSLKNRISITRDTSKNQFFLNLNSVTTEDTVTYYCARGGGYYGGTYRVFADWGQGTTLTVSS
VL: QIVLSQSPASLAVSLGQRATISCRTSESVDTYGNSFIYWYQQKPGQPPKLLIYRASNLESGIPARFSGSGSRTDFTLTINPVEADDVATYYCQQGNKDPYTFGSGTKLEMKR
notes: as for B1
EC50 [1]: 0.9 nM
EC50 [2]: 10.1 nM
MFI (6.4 nM) [2]: 177000 MFI

B12: I23RB27 (antibody, mouse IgG2a, kappa, V domains shown)
VH: QVQLKESGPDLVQPSQTLSLTCTVSGFSLTSYGVHWVRQPPGKGLEWVGTLGWDDKKSYNSALKSRLSISRDTSKSQVFLKLSSLQTEDTAMYYCTKEDVSYAMDFWGQGTTLTVSS
VL: DIQMTQSPTSLAVSLGQRATISCRASESVEYYGTSLMHWYQQKPGQPPKLLIYAASNVESGVPARFSGSGSGTDFSLNIHPVEEEDIAMYFCQQGKKVPWTFGAGTKLEMKR
notes: as for B1
EC50 [1]: 3.5 nM
EC50 [2]: > 50 nM
MFI (6.4 nM) [2]: 153000 MFI

B13: I23RB144 (antibody, mouse IgG2a, kappa, V domains shown)
VH: EVQLQQSGPELVKPGASVKMSCKASGYTFTSYIIHWVKQKPGQGLEWIGYIDPYNDDTKYNEKFKGKATLTSDKSSSTAYMEFSSLTSEDSAVYYCARLGSINYYDGSYFDYWGQGTSVTVSS
VL: DIVMTQSPLTLSVIIGQSASISCKSSQSLLDSDGKTYLNWLLQRPGQSPKRLMYLVSKLDSGVPDRFTGSGSGTDFTLKISRVEAEDLGVYYCWQGIHFPLTFGSGTRLEIKR
notes: as for B1
EC50 [1]: 13.4 nM
EC50 [2]: > 50 nM
MFI (6.4 nM) [2]: 46200 MFI

B16: I23RB165 (antibody, mouse IgG2a, kappa, V domains shown)
VH: EVQLQQSGAELVRPGASVKLSCTASGFNIKDSLMHWVKQRPEQGLEWIGWIDPEDGKTKYAPKFQDKATITADTSSNTAYLQLSSLTSEDTAIYYCARREVLDYFDYWGQGTTLTVSS
VL: B15 VL with K3V, D33G, R100L, L110M
notes: as for B1
EC50 [1]: 0.6 nM
EC50 [2]: 9.7 nM
MFI (6.4 nM) [2]: 116000 MFI
